Results reported in PMC9842712, “Cryo-EM structure of hnRNPDL-2 fibrils, a functional amyloid associated with limb-girdle muscular dystrophy D3” (Nature Communications, 2022).

B1: hnRNPDL-2 (human heterogeneous ribonucleoprotein D-like, isoform 2), wild type (natural protein, UniProt O14979-2 1-301, looked up)
chain: MEDMNEYSNIEEFAEGSKINASKNQQDDGKMFIGGLSWDTSKKDLTEYLSRFGEVVDCTIKTDPVTGRSRGFGFVLFKDAASVDKVLELKEHKLDGKLIDPKRAKALKGKEPPKKVFVGGLSPDTSEEQIKEYFGAFGEIENIELPMDTKTNERRGFCFITYTDEEPVKKLLESRYHQIGSGKCEIKVAQPKEVYRQQQQQQKGGRGAAAGGRGGTRGRGRGQGQNWNQGFNNYYDQGYGNYNSAYGGDQNYSGYGGYDYTGYNYGNYGYGQGYADYSGQQSTYGKASRGGGNHQNNYQPY
notes: Heterogeneous nuclear ribonucleoprotein D-like, human, isoform hnRNPDL-2 of 301 residues (RRM1, RRM2, C-terminal Y/G-rich LCD ~201-285, PY-NLS 281-301; exon 6 = residues 224-280). numbers count on: hnRNPDL-2 (the 301-residue isoform); Cloned in pETite with a His-SUMO N-terminal tag; In the fibril the subunits stack in a single protofilament; also called WT hnRNPDL-2; full-length hnRNPDL-2; …
B2: F-RNA (F-GACUAGC) (ssRNA)
RNA: GACUAGC

Tests used:
[1] = target: the molecule itself; assay: cryo-EM structure; helical reconstruction of amyloid fibrils formed at pH 7.5, 300 mM NaCl; single protofilament, cross-beta stacking of subunits; 2.5 Å
hnRNPDL-2 (soluble) = target: T1, hnRNPDL-2 (soluble) (human, UniProt O14979-2 1-301); assay: EMSA; apparent Kd, Hill fit; 50 nM probe; EMSA: 10 ul, 50 nM probe, 24 h at RT, 8% polyacrylamide gel, buffer not stated; fibril binding: 24 h at RT, spin 16,000 x g at 4 C, pellet wash 50 mM HEPES pH 7.5, 150 mM NaCl; settings: protein: recombinant; tags: N-terminal His-SUMO (expression construct); label: fluorescein, printed at 5' side (F-); FITC in peer review file; single strand, 7-mer
T1 sequence: B1 chain

| Binder | binding result [1] | Kd (hnRNPDL-2 (soluble)) [µM] |
| --- | --- | --- |
| B1 | binds | – |
| B2 | – | 22.8 ± 3.95 |
